# From patent US20020102268A1
# Target: uncleaved bovine spleen PARP (poly(ADP-ribose) polymerase) (UniProt P18493)
# UniProt P18493, sequence (P18493 2-1016): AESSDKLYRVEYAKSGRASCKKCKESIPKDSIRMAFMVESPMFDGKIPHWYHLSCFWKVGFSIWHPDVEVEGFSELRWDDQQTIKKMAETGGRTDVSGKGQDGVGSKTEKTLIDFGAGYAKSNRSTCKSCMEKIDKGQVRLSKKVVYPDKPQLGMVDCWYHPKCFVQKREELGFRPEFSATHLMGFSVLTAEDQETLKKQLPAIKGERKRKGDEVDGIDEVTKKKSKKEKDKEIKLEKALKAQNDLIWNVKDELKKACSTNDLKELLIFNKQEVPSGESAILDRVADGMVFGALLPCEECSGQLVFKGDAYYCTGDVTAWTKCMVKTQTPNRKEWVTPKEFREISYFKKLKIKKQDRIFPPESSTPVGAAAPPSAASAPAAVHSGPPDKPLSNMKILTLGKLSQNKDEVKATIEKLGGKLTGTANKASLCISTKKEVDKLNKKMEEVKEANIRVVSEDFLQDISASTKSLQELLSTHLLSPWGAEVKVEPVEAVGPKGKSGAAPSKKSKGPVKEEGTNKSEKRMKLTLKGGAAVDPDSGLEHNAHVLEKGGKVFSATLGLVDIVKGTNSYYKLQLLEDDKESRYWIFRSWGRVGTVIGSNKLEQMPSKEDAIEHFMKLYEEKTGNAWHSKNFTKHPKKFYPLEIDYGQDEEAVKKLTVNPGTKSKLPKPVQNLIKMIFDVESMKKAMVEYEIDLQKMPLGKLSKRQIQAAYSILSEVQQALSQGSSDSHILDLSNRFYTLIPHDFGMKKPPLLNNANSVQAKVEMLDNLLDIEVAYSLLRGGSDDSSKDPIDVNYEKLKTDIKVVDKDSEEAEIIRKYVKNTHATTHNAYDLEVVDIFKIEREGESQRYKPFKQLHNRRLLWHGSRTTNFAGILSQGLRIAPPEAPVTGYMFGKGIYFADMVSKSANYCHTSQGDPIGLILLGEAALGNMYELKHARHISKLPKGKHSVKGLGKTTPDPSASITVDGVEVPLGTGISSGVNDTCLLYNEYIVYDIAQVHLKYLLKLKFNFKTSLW
substance,measurement,value
recombinant CPP32 (caspase 3),"cleavage of PARP, seen on Western blot",two bands corresponding to uncleaved and cleaved PARP were visualized in the cleaved sample
